The results in this text go back to paper PMC7171142 (Scientific Reports, 2020).

Experiment [1] concerns the target Recombinant Ecto-PfRipr (D21-N1086), C-terminal His-tag (P. falciparum 3D7) (UniProt O97302). Kind of experiment: SPR; single-cycle kinetics, Biacore X100; recombinant PfRipr immobilised on a CM5 chip as ligand; analytes at 3.13, 6.25, 12.5, 25 and 50 nM, contact time 120 s, dissociation 180 s, last dissociation 3000 s.
Experiment [2] has as its target T1, Recombinant Ecto-PfRipr (D21-N1086), C-terminal His-tag (P. falciparum 3D7, UniProt O97302 21-1086). Kind of experiment: SPR; single-cycle kinetics, Biacore X100; […], dissociation 180 s, […]. The following applies: both partners purified. In general terms: SPR reads the build-up and loss of mass on a sensor chip optically.
In experiment [3] the target is T1, Recombinant Ecto-PfRipr (D21-N1086), …. Kind of experiment: SPR; single-cycle kinetics, Biacore X100; recombinant PfRipr immobilised on a CM5 chip as ligand; analytes at 3.13, 6.25, 12.5, 25 and 50 nM, contact time 120 s, dissociation 180 s, last dissociation 3000 s. The following applies: both partners purified.

T1 sequence (O97302 21-1086): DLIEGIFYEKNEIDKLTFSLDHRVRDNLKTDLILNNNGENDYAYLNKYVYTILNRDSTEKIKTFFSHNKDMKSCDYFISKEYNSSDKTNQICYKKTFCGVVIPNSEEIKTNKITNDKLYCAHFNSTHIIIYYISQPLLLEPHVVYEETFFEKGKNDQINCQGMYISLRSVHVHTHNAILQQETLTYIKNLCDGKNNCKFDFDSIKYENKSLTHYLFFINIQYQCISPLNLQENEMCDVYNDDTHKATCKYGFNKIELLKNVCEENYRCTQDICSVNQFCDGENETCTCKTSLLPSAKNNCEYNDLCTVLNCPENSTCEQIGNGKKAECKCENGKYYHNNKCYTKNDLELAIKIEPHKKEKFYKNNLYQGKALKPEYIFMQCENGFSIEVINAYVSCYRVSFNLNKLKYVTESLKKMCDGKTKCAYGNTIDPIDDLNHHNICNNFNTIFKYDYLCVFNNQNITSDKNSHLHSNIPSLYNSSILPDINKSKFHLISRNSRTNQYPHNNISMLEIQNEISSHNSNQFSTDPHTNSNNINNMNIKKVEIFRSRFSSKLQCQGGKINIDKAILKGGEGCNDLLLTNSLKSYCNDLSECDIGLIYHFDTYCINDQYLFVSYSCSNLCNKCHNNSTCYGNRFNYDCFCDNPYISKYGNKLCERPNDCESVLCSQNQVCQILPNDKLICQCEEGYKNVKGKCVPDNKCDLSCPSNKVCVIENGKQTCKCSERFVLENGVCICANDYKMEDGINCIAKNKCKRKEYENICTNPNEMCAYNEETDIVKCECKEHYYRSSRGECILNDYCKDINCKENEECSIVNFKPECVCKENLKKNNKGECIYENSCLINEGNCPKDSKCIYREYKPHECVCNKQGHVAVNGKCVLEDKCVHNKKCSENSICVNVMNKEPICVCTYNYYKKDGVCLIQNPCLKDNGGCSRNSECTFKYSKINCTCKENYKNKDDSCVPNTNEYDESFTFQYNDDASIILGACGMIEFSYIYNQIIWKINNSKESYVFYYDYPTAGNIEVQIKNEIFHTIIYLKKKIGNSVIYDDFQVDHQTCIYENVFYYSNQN
Sequence of Recombinant Ecto-PfRipr (D21-N1086), C-terminal His-tag (P. falciparum 3D7) (O97302 21-1086): as above

One may read the Kd as the equilibrium constant for the complex coming apart. What is called koff is the rate constant with which the complex falls apart. What is called kon is a measure of how fast the partners come together. Consider “GST-fused recombinant NPTN (Q29-L221) with C-terminal His-tag (domain or fragment)”, for which, in experiment [1], the Kd is 24 nM, the off-rate (koff) worked out at 6.5e-05 s⁻¹ and the kon is 2700 M⁻¹ s⁻¹.

B1: GST-fused recombinant CyRPA (N27-E362) with C-terminal His-tag (domain or fragment)
chain: NCDSRHVFIRTELSFIKNNVPCIRDMFFIYKRELYNICLDDLKGEEDETHIYVQKKVKDSWITLNDLFKETDLTGRPHIFAYVDVEEIIILLCEDEEFSNRKKDMTCHRFYSNDGKEYNNSEITISDYILKDKLLSSYVSLPLKIENREYFLICGVSPYKFKDDNKKDDILCMASHDKGETWGTKIVIKYDNYKLGVQYFFLRPYISKNDLSFHFYVGDNINNVKNVNFIECTHEKDLEFVCSNRDFLKDNKVLQDVSTLNDEYIVSYGNDNNFAECYIFFNNENSILIKPEKYGNTTAGCYGGTFVKIDENRTLFIYSSSQGIYNIHTIYYANYE
In the case of B1, in experiment [2], the equilibrium dissociation constant (Kd) was found to be 69 nM, the koff was determined as 0.00016 s⁻¹ and the kon was found to be 2400 M⁻¹ s⁻¹.

B2: GST-fused recombinant SEMA7A (Q45-H666) with C-terminal His-tag (domain or fragment, human, UniProt O75326 45-666, looked up)
chain: QGHLRSGPRIFAVWKGHVGQDRVDFGQTEPHTVLFHEPGSSSVWVGGRGKVYLFDFPEGKNASVRTVNIGSTKGSCLDKRDCENYITLLERRSEGLLACGTNARHPSCWNLVNGTVVPLGEMRGYAPFSPDENSLVLFEGDEVYSTIRKQEYNGKIPRFRRIRGESELYTSDTVMQNPQFIKATIVHQDQAYDDKIYYFFREDNPDKNPEAPLNVSRVAQLCRGDQGGESSLSVSKWNTFLKAMLVCSDAATNKNFNRLQDVFLLPDPSGQWRDTRVYGVFSNPWNYSAVCVYSLGDIDKVFRTSSLKGYHSSLPNPRPGKCLPDQQPIPTETFQVADRHPEVAQRVEPMGPLKTPLFHSKYHYQKVAVHRMQASHGETFHVLYLTTDRGTIHKVVEPGEQEHSFAFNIMEIQPFRRAAAIQTMSLDAERRKLYVSSQWEVSQVPLDLCEVYGGGCHGCLMSRDPYCGWDQGRCISIYSSERSVLQSINPAEPHKECPNPKPDKAPLQKVSLAPNSRYYLSCPMESRHATYSWRHKENVEQSCEPGHQSPNCILFIENLTAQQYGHYFCEAQEGSYFREAQHWQLLPEDGIMAEHLLGHACALAASLWLGVLPTLTLGLLVH
In the case of B2, in experiment [3], the equilibrium dissociation constant (Kd) stood at 0.94 nM, the koff was found to be 4.1e-05 s⁻¹ and the kon amounted to 44000 M⁻¹ s⁻¹.

B3: Recombinant Rh5 (E26-Q526), released from GST by TEV protease (domain or fragment)
chain: ENAIKKTKNQENNLTLLPIKSTEEEKDDIKNGKDIKKEIDNDKENIKTNNAKDHSTYIKSYLNTNVNDGLKYLFIPSHNSFIKKYSVFNQINDGMLLNEKNDVKNNEDYKNVDYKNVNFLQYHFKELSNYNIANSIDILQEKEGHLDFVIIPHYTFLDYYKHLSYNSIYHKSSTYGKCIAVDAFIKKINETYDKVKSKCNDIKNDLIATIKKLEHPYDINNKNDDSYRYDISEEIDDKSEETDDETEEVEDSIQDTDSNHTPSNKKKNDLMNRTFKKMMDEYNTKKKKLIKCIKNHENDFNKICMDMKNYGTNLFEQLSCYNNNFCNTNGIRYHYDEYIHKLILSVKSKNLNKDLSDMTNILQQSELLLTNLNKKMGSYIYIDTIKFIHKEMKHIFNRIEYHTKIINDKTKIIQDKIKLNIWRTFQKDELLKRILDMSNEYSLFITSDHLRQMLYNTFYSKEKHLNNIFHHLIYVLQMKFNDVPIKMEYFQTYKKNKPLTQ
For B3, in experiment [3], the equilibrium dissociation constant (Kd) was 0.48 nM, the koff is 2.9e-05 s⁻¹ and the association rate constant (kon) was 61000 M⁻¹ s⁻¹.

B4: GST-fused recombinant AMIGO2 (M1-N397) with C-terminal His-tag (domain or fragment, human, UniProt Q86SJ2 1-397, looked up)
chain: MSLRVHTLPTLLGAVVRPGCRELLCLLMITVTVGPGASGVCPTACICATDIVSCTNKNLSKVPGNLFRLIKRLDLSYNRIGLLDSEWIPVSFAKLNTLILRHNNITSISTGSFSTTPNLKCLDLSSNKLKTVKNAVFQELKVLEVLLLYNNHISYLDPSAFGGLSQLQKLYLSGNFLTQFPMDLYVGRFKLAELMFLDVSYNRIPSMPMHHINLVPGKQLRGIYLHGNPFVCDCSLYSLLVFWYRRHFSSVMDFKNDYTCRLWSDSRHSRQVLLLQDSFMNCSDSIINGSFRALGFIHEAQVGERLMVHCDSKTGNANTDFIWVGPDNRLLEPDKEMENFYVFHNGSLVIESPRFEDAGVYSCIAMNKQRLLNETVDVTINVSNFTVSRSHAHEAFN
In the case of B4, in experiment [3], the Kd was determined as 0.16 nM, the koff turned out to be 2e-05 s⁻¹ and the kon worked out at 120000 M⁻¹ s⁻¹.
